# Laboratory results as given in US20240200091A1, “USE OF PROTOPORPHYRINOGEN OXIDASE” (BEIJING DABEINONG BIOTECHNOLOGY CO., LTD., priority 2021, published 2024).
# Columns and labels:
# Format in all cases: in vivo
# [1] = tested on: Arabidopsis thaliana T1 plants; assay: oxyfluorfen tolerance of transgenic Arabidopsis thaliana T1 plants (spray, grade of pesticide damage); conditions: 7 DAT, number of plants of 24 per genotype, grades
# Method in brief: (§1)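 Herbicide rates in g ai/ha are as follows: oxyfluorfen 180 or 720, saflufenacil 25 or 100, flumioxazin 60 or 240, sulfentrazone 450 or 900, each against a water control. Sprays go onto PPO-transgenic T1 plants at 18 days. At 7 DAT, leaf-area injury is graded 0–3, with grades 0–1 counted as highly resistant.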
# [2] = tested on: Arabidopsis thaliana T1 plants; assay: saflufenacil tolerance of transgenic Arabidopsis thaliana T1 plants (spray, grade of pesticide damage); conditions: 7 DAT, number of plants of 24 per genotype, grades
# Method in brief: as §1
# [3] = tested on: Arabidopsis thaliana T1 plants; assay: flumioxazin tolerance of transgenic Arabidopsis thaliana T1 plants (spray, grade of pesticide damage); conditions: 7 DAT, number of plants of 24 per genotype, grades
# Method in brief: as §1
# [4] = tested on: Arabidopsis thaliana T1 plants; assay: sulfentrazone tolerance of transgenic Arabidopsis thaliana T1 plants (spray, grade of pesticide damage); conditions: 7 DAT, number of plants of 24 per genotype, grades
# Method in brief: as §1
# [5] = tested on: transgenic soybean plants; assay: saflufenacil tolerance of transgenic soybean plants (spray, grade of pesticide damage); parameters: key to damage levels rated at grade: grade 0 means that the growth status of plants is essentially consistent with those sprayed with the blank solvent (water); grade 1 means that the average of the damage levels of plants is less than 10%; grade 2 means that the average of the damage levels of plants is greater than 100%; grade 3 means that the average of the damage levels of plants is 100%; conditions: for The grade of pesticide damage/plant: grade 0 / The grade of pesticide damage/plant: grade 1 / The grade of pesticide damage/plant: grade 2 / The grade of pesticide damage/plant: grade 3: 7 DAT, number of plants of 16 per genotype, grades
# [6] = tested on: transgenic soybean plants; assay: oxyfluorfen tolerance of transgenic soybean plants (spray, grade of pesticide damage); conditions: for The grade of pesticide damage/plant: grade 0 / The grade of pesticide damage/plant: grade 1 / The grade of pesticide damage/plant: grade 2 / The grade of pesticide damage/plant: grade 3: 7 DAT, number of plants of 16 per genotype, grades; for tolerance to oxyfluorfen: soybean
# [7] = tested on: transgenic soybean plants; assay: flumioxazin tolerance of transgenic soybean plants (spray, grade of pesticide damage); conditions: for The grade of pesticide damage/plant: grade 0 / The grade of pesticide damage/plant: grade 1 / The grade of pesticide damage/plant: grade 2 / The grade of pesticide damage/plant: grade 3: 7 DAT, number of plants of 16 per genotype, grades
molecule,measurement,setting,value
"PPO1A: nucleotide sequence encoding microbial protoporphyrinogen oxidase PPO1 (SEQ ID NO:1), Arabidopsis thaliana/soybean common codon usage bias (nucleic acid, PPO1A Nucleotide Sequence) DNA: ATGAAGGCTTTGGTACTCTACAGCACAAGAGACGGTCAGACACACGCGATCGCGTCGTACATTGCTAATTGCATGAAAGAGAAGTATGAGTGTGACGTTATTGATCTTCTTCATGCTCAGCATGTTACATTATCACGGTATGATAAGGTTCTTGTAGGAGCTTCTATACGATATGGACATTTCAATGCTGTGTTGGACAAATTTGTGAAGCAAAACATCCAACAACTAAACTCAATGCCTTCTGCTTTCTTTGCTGTTAATTTGACTGCCAGGAAACCTGAGAAACGTACTCCTCAGACCAATTCTTATGTTAGGAAGTTTCTTCTGGGGACACCATGGAAACCAGCAATGTGTGGCGTGTTTGCAGGAGCATTGAGGTATCCACGTTACAGATGGGTTGATAAAGTGATGATTCAGCTCATAATGAGAATGACTGGTGGTGAAACAGATACAAGCAAAGAAGTTGAGTATACTGATTGGGAACAAGTCAAAAAGTTCGCAGAAGATTTTGGAAAGCTAAGTTACAAGAAAACCCTCTGA",The grade of pesticide damage/plant: grade 0,[1]; oxyfluorfen 180 g ai/ha (1×),24 plant
same,The grade of pesticide damage/plant: grade 1,[1]; oxyfluorfen 180 g ai/ha (1×),0 plant
same,The grade of pesticide damage/plant: grade 2,[1]; oxyfluorfen 180 g ai/ha (1×),0 plant
same,The grade of pesticide damage/plant: grade 3,[1]; oxyfluorfen 180 g ai/ha (1×),0 plant
same,The grade of pesticide damage/plant: grade 0,[1]; oxyfluorfen 720 g ai/ha (4×),19 plant
same,The grade of pesticide damage/plant: grade 1,[1]; oxyfluorfen 720 g ai/ha (4×),5 plant
same,The grade of pesticide damage/plant: grade 2,[1]; oxyfluorfen 720 g ai/ha (4×),0 plant
same,The grade of pesticide damage/plant: grade 3,[1]; oxyfluorfen 720 g ai/ha (4×),0 plant
same,The grade of pesticide damage/plant: grade 0,[2]; saflufenacil 25 g ai/ha (1×),24 plant
same,The grade of pesticide damage/plant: grade 1,[2]; saflufenacil 25 g ai/ha (1×),0 plant
same,The grade of pesticide damage/plant: grade 2,[2]; saflufenacil 25 g ai/ha (1×),0 plant
same,The grade of pesticide damage/plant: grade 3,[2]; saflufenacil 25 g ai/ha (1×),0 plant
same,The grade of pesticide damage/plant: grade 0,[2]; saflufenacil 100 g ai/ha (4×),4 plant
same,The grade of pesticide damage/plant: grade 1,[2]; saflufenacil 100 g ai/ha (4×),20 plant
same,The grade of pesticide damage/plant: grade 2,[2]; saflufenacil 100 g ai/ha (4×),0 plant
same,The grade of pesticide damage/plant: grade 3,[2]; saflufenacil 100 g ai/ha (4×),0 plant
same,The grade of pesticide damage/plant: grade 0,[3]; flumioxazin 60 g ai/ha (1×),24 plant
same,The grade of pesticide damage/plant: grade 1,[3]; flumioxazin 60 g ai/ha (1×),0 plant
same,The grade of pesticide damage/plant: grade 2,[3]; flumioxazin 60 g ai/ha (1×),0 plant
same,The grade of pesticide damage/plant: grade 3,[3]; flumioxazin 60 g ai/ha (1×),0 plant
same,The grade of pesticide damage/plant: grade 0,[3]; flumioxazin 240 g ai/ha (4×),23 plant
same,The grade of pesticide damage/plant: grade 1,[3]; flumioxazin 240 g ai/ha (4×),1 plant
same,The grade of pesticide damage/plant: grade 2,[3]; flumioxazin 240 g ai/ha (4×),0 plant
same,The grade of pesticide damage/plant: grade 3,[3]; flumioxazin 240 g ai/ha (4×),0 plant
same,The grade of pesticide: grade 0,[4]; sulfentrazone 450 g ai/ha (1×),24
same,The grade of pesticide: grade 1,[4]; sulfentrazone 450 g ai/ha (1×),0
same,The grade of pesticide: grade 2,[4]; sulfentrazone 450 g ai/ha (1×),0
same,The grade of pesticide: grade 3,[4]; sulfentrazone 450 g ai/ha (1×),0
same,The grade of pesticide: grade 0,[4]; sulfentrazone 900 g ai/ha (2×),20
same,The grade of pesticide: grade 1,[4]; sulfentrazone 900 g ai/ha (2×),4
same,The grade of pesticide: grade 2,[4]; sulfentrazone 900 g ai/ha (2×),0
same,The grade of pesticide: grade 3,[4]; sulfentrazone 900 g ai/ha (2×),0
same,The grade of pesticide damage/plant: grade 0,[5]; saflufenacil 50 g ai/ha (2×),16 plant
same,The grade of pesticide damage/plant: grade 1,[5]; saflufenacil 50 g ai/ha (2×),0 plant
same,The grade of pesticide damage/plant: grade 2,[5]; saflufenacil 50 g ai/ha (2×),0 plant
same,The grade of pesticide damage/plant: grade 3,[5]; saflufenacil 50 g ai/ha (2×),0 plant
same,The grade of pesticide damage/plant: grade 0,[5]; saflufenacil 100 g ai/ha (4×),16 plant
same,The grade of pesticide damage/plant: grade 1,[5]; saflufenacil 100 g ai/ha (4×),0 plant
same,The grade of pesticide damage/plant: grade 2,[5]; saflufenacil 100 g ai/ha (4×),0 plant
same,The grade of pesticide damage/plant: grade 3,[5]; saflufenacil 100 g ai/ha (4×),0 plant
same,tolerance to saflufenacil,"[5]; soybean, saflufenacil at four-fold field concentration (100 g ai/ha)",high-resistant tolerance
same,damage levels rated at grade,"[5]; soybean, saflufenacil at two-fold field concentration (50 g ai/ha)",0
same,tolerance to saflufenacil,"[5]; soybean, saflufenacil, compared with the control vector and CK",different extents of tolerance
same,The grade of pesticide damage/plant: grade 0,[6]; oxyfluorfen 360 g ai/ha (2×),16 plant
same,The grade of pesticide damage/plant: grade 1,[6]; oxyfluorfen 360 g ai/ha (2×),0 plant
same,The grade of pesticide damage/plant: grade 2,[6]; oxyfluorfen 360 g ai/ha (2×),0 plant
same,The grade of pesticide damage/plant: grade 3,[6]; oxyfluorfen 360 g ai/ha (2×),0 plant
same,The grade of pesticide damage/plant: grade 0,[6]; oxyfluorfen 720 g ai/ha (4×),16 plant
same,The grade of pesticide damage/plant: grade 1,[6]; oxyfluorfen 720 g ai/ha (4×),0 plant
same,The grade of pesticide damage/plant: grade 2,[6]; oxyfluorfen 720 g ai/ha (4×),0 plant
same,The grade of pesticide damage/plant: grade 3,[6]; oxyfluorfen 720 g ai/ha (4×),0 plant
same,tolerance to oxyfluorfen,[6]; oxyfluorfen at four-fold field concentration (720 g ai/ha),high-resistant tolerance
same,tolerance to oxyfluorfen,[6]; oxyfluorfen at two-fold field concentration (360 g ai/ha),high-resistant tolerance
same,The grade of pesticide damage/plant: grade 0,[7]; flumioxazin 120 g ai/ha (2×),16 plant
same,The grade of pesticide damage/plant: grade 1,[7]; flumioxazin 120 g ai/ha (2×),0 plant
same,The grade of pesticide damage/plant: grade 2,[7]; flumioxazin 120 g ai/ha (2×),0 plant
same,The grade of pesticide damage/plant: grade 3,[7]; flumioxazin 120 g ai/ha (2×),0 plant
same,The grade of pesticide damage/plant: grade 0,[7]; flumioxazin 240 g ai/ha (4×),16 plant
same,The grade of pesticide damage/plant: grade 1,[7]; flumioxazin 240 g ai/ha (4×),0 plant
same,The grade of pesticide damage/plant: grade 2,[7]; flumioxazin 240 g ai/ha (4×),0 plant
same,The grade of pesticide damage/plant: grade 3,[7]; flumioxazin 240 g ai/ha (4×),0 plant
same,tolerance to flumioxazin,"[7]; soybean, flumioxazin at different concentrations (120 and 240 g ai/ha)",high-resistant tolerance
